Values quoted from earlier work in patent publication US8450118B2, “Method for detecting binding interactions between membrane proteins and analytes in a homogenous assay” (Molecular Sensing, Inc., priority 2009, dated 2013).

Target: T1, mouse B1 receptor (Mus musculus, UniProt Q61125)
T1 sequence (Q61125 1-334): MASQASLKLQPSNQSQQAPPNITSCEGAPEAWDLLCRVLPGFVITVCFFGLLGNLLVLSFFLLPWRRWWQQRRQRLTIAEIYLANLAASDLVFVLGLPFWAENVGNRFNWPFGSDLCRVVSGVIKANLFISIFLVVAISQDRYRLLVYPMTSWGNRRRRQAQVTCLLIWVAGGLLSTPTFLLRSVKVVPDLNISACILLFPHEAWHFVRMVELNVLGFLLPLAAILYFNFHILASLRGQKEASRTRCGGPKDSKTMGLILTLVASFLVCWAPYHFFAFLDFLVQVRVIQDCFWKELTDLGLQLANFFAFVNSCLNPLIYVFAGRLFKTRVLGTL

Substance: BK(1-8): peptide generated by removal of the C-terminal arginine of bradykinin by carboxypeptidases; selective ligand at the B1 receptor (RPPGFSPF; Bradykinin; UniProt P01042 381-388, looked up, fragment)
- fold higher affinity for BK(1-8) compared to Lys-BK(1-8): 2-3 fold
